B1: Cellular tumor antigen p53 (Mus musculus), P02340 (parent)
chain: MTAMEESQSDISLELPLSQETFSGLWKLLPPEDILPSPHCMDDLLLPQDVEEFFEGPSEALRVSGAPAAQDPVTETPGPVAPAPATPWPLSSFVPSQKTYQGNYGFHLGFLQSGTAKSVMCTYSPPLNKLFCQLAKTCPVQLWVSATPPAGSRVRAMAIYKKSQHMTEVVRRCPHHERCSDGDGLAPPQHLIRVEGNLYPEYLEDRQTFRHSVVVPYEPPEAGSEYTTIHYKYMCNSSCMGGMNRRPILTIITLEDSSGNLLGRDSFEVRVCACPGRDRRTEEENFRKKEVLCPELPPGSAKRALPTCTSASPPQKKKPLDGEYFTLKIRGRKRFEMFRELNEALELKDAHATEESGDSRAHSSYLKTKKGQSTSRHKKTMVKKVGPDSD

Variants of: B1
Conditions: with ep300_human EP300, Q09472
Chain of ep300_human EP300, Q09472 (Q09472 whole entry): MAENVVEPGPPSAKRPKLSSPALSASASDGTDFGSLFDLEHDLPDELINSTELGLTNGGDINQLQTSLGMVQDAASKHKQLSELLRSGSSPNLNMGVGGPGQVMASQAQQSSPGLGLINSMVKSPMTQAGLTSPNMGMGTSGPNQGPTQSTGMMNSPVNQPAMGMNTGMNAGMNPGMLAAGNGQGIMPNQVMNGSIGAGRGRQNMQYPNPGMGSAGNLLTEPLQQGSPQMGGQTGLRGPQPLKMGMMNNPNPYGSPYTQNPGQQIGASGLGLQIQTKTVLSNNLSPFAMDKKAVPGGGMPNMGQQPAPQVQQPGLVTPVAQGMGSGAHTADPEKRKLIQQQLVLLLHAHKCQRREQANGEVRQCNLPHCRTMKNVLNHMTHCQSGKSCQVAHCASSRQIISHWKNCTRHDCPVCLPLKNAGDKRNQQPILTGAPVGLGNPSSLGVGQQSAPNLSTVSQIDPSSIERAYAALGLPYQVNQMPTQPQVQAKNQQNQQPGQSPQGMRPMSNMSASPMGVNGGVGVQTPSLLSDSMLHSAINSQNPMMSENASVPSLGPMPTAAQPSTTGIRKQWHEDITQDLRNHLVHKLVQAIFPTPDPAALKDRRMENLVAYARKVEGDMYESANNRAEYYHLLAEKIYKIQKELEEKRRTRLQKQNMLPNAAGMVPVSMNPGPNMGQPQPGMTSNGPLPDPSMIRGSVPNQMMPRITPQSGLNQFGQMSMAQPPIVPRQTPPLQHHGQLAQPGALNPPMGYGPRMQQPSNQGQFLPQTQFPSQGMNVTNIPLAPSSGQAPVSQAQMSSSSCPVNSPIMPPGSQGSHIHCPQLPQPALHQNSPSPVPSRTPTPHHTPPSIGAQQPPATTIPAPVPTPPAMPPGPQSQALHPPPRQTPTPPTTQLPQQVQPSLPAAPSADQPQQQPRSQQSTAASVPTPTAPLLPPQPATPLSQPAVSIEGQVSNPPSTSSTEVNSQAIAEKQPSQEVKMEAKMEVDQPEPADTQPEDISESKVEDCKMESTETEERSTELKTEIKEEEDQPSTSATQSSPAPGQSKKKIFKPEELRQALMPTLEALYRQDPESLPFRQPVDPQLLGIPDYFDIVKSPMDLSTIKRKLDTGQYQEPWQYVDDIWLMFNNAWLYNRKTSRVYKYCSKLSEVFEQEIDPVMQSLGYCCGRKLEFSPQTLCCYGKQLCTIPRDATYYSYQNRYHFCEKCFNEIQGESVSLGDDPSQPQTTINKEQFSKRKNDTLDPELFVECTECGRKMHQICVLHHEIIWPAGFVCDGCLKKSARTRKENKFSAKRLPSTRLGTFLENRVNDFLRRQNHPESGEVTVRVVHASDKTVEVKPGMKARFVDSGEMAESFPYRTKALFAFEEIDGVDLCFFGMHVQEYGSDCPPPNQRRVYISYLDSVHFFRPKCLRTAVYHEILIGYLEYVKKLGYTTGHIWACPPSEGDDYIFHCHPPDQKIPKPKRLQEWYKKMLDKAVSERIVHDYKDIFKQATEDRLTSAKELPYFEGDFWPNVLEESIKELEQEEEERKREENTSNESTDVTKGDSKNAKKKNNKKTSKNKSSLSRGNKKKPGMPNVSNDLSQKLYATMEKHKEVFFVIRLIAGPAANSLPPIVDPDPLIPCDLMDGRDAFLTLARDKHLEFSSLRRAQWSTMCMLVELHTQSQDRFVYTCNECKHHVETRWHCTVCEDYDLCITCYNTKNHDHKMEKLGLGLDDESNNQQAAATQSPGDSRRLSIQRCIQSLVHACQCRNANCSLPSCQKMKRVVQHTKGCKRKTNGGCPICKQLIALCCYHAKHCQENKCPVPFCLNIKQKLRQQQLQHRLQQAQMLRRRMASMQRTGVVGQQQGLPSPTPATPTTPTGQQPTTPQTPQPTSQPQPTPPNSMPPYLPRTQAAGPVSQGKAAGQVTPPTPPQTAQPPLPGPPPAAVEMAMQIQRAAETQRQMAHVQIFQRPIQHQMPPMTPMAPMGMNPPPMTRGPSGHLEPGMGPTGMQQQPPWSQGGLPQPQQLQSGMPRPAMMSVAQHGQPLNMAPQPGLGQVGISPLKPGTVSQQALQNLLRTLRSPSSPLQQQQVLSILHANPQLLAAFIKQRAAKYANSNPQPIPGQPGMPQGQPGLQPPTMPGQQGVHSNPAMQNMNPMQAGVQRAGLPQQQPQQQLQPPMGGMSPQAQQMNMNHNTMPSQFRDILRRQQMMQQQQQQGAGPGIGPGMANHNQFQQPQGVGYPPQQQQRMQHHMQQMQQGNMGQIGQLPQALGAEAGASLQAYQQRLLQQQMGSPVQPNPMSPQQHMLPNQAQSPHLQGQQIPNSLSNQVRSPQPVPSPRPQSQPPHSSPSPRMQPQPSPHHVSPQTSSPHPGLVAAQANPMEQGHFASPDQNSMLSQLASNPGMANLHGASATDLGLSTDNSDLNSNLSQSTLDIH

Row | Variant | effect of a mutation on the interaction
1 | MTAMEESQSDISLELPLSQETFSGQSKLLPPEDILPSPHCMDDLLLPQDVEEFFEGPSEALRVSGAPAAQDPVTETPGPVAPAPATPWPLSSFVPSQKTYQGNYGFHLGFLQSGTAKSVMCTYSPPLNKLFCQLAKTCPVQLWVSATPPAGSRVRAMAIYKKSQHMTEVVRRCPHHERCSDGDGLAPPQHLIRVEGNLYPEYLEDRQTFRHSVVVPYEPPEAGSEYTTIHYKYMCNSSCMGGMNRRPILTIITLEDSSGNLLGRDSFEVRVCACPGRDRRTEEENFRKKEVLCPELPPGSAKRALPTCTSASPPQKKKPLDGEYFTLKIRGRKRFEMFRELNEALELKDAHATEESGDSRAHSSYLKTKKGQSTSRHKKTMVKKVGPDSD [L25Q;W26S] | decreasing interaction
